Results from US20130260394A1.

Legend:
[1] = molecular target: membrane receptor interacting with BLV (unknown) (human); assay: flow cytometry, tagged RBD on blood neutrophils of one CF patient
[2] = molecular target: membrane receptor interacting with BLV (unknown) (human); assay: flow cytometry, tagged RBD on sputum neutrophils of one CF patient

## Bovine Leukaemia Virus receptor-binding domain (BLV RBD) (from UniProt P25507 34-215)
[1]
  deltaGeomean of fluorescence: 0
[2]
  deltaGeomean of fluorescence: 140
